The results in this text go back to patent US20220213456.

Assay in all cases: cleavage_in_vitro
Data set [1] has as its system T1, OMNI-46 (Carnobacterium funditum).
T1 sequence: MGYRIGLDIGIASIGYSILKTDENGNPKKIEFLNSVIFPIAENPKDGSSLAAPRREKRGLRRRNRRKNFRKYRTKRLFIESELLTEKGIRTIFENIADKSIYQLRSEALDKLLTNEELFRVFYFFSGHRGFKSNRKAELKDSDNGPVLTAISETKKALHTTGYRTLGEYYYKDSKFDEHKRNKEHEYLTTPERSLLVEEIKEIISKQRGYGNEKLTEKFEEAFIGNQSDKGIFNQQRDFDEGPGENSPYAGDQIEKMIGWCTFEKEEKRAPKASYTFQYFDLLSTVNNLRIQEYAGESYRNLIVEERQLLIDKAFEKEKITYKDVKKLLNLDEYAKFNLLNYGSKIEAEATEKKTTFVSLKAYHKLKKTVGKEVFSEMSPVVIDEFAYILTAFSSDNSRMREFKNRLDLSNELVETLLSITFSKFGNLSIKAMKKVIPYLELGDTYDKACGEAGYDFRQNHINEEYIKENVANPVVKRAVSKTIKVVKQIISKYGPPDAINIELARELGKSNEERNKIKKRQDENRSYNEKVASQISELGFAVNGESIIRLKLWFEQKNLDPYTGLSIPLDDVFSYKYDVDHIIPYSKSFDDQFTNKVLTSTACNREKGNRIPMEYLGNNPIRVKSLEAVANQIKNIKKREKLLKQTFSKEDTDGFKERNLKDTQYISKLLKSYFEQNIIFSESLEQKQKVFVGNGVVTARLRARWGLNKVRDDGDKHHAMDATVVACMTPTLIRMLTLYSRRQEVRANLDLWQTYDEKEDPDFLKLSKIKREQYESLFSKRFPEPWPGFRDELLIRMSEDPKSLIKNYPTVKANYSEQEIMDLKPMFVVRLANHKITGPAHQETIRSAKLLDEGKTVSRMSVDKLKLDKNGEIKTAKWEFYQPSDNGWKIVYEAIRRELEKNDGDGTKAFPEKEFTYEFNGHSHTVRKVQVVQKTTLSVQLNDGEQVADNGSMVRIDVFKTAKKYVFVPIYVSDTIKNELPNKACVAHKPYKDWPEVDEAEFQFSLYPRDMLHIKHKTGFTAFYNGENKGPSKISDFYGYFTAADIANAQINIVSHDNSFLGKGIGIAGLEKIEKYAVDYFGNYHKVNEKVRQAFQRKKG
The settings on record: TXTL; PAM YAAAR.

Data set [2] deals with T2, OMNI-43 (Arcobacter sp. SM1702).
T2 sequence: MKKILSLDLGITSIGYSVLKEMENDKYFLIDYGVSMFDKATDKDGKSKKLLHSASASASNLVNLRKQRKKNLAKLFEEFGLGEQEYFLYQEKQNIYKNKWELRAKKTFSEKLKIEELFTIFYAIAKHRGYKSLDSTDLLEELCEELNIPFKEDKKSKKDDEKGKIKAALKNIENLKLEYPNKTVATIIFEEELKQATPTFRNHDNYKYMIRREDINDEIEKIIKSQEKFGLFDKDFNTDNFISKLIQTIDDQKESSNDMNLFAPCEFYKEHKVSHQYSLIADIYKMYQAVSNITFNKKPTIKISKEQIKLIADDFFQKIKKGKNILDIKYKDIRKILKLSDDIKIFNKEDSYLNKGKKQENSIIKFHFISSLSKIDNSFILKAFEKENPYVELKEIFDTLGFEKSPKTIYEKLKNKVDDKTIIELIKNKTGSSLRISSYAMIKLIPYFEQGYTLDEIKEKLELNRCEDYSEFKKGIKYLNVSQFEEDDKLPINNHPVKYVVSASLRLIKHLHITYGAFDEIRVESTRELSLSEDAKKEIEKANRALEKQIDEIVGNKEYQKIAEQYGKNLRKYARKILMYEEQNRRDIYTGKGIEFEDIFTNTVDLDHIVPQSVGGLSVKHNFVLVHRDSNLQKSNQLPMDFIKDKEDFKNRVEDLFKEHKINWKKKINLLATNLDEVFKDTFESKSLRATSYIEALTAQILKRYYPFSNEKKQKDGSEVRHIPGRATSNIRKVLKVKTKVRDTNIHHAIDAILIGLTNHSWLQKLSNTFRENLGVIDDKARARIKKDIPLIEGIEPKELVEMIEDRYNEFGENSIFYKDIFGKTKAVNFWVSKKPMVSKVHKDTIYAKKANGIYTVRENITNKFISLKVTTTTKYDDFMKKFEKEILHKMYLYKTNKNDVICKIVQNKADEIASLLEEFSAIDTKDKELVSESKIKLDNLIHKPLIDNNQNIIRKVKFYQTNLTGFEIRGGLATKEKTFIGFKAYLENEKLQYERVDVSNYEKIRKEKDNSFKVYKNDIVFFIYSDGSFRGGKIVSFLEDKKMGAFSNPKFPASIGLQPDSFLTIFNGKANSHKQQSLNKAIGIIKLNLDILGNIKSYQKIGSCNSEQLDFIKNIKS
The note with it: TXTL; PAM YAAAR; V1, V2 tested.

For data set [3], the system named is T3, OMNI-44 (Arcobacter mytili).
T3 sequence: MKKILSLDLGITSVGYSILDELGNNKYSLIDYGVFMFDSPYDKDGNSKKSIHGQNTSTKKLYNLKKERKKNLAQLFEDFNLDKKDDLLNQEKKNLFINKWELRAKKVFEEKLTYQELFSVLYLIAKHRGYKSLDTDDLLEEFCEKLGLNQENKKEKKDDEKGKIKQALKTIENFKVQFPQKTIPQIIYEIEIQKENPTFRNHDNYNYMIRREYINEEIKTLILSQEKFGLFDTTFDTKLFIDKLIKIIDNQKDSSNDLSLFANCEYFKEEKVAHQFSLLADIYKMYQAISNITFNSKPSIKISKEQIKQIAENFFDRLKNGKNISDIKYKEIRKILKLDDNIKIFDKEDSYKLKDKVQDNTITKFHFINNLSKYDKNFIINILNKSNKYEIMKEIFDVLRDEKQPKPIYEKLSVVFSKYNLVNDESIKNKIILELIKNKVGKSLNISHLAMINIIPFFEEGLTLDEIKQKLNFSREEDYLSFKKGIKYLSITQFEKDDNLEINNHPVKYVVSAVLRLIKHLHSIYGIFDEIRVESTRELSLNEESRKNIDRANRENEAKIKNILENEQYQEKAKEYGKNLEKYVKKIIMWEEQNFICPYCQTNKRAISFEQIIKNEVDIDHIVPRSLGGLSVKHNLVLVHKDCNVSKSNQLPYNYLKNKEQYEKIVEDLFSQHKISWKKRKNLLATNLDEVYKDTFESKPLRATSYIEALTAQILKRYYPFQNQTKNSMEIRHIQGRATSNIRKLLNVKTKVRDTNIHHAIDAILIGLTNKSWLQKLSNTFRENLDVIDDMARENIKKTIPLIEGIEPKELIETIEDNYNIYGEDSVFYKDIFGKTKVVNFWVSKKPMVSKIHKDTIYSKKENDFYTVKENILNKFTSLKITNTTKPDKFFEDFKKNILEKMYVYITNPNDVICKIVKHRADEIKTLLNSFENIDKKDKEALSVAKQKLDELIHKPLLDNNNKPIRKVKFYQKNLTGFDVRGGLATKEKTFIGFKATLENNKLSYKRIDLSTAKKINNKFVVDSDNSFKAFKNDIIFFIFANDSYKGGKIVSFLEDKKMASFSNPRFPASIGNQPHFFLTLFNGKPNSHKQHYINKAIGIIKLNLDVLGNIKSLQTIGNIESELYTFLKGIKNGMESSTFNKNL
The settings on record: TXTL; PAM NRHAA; FIG. 3H states V2, table states V3.

Data set [4] has as its system T4, OMNI-42 (Caviibacter abscessus).
T4 sequence: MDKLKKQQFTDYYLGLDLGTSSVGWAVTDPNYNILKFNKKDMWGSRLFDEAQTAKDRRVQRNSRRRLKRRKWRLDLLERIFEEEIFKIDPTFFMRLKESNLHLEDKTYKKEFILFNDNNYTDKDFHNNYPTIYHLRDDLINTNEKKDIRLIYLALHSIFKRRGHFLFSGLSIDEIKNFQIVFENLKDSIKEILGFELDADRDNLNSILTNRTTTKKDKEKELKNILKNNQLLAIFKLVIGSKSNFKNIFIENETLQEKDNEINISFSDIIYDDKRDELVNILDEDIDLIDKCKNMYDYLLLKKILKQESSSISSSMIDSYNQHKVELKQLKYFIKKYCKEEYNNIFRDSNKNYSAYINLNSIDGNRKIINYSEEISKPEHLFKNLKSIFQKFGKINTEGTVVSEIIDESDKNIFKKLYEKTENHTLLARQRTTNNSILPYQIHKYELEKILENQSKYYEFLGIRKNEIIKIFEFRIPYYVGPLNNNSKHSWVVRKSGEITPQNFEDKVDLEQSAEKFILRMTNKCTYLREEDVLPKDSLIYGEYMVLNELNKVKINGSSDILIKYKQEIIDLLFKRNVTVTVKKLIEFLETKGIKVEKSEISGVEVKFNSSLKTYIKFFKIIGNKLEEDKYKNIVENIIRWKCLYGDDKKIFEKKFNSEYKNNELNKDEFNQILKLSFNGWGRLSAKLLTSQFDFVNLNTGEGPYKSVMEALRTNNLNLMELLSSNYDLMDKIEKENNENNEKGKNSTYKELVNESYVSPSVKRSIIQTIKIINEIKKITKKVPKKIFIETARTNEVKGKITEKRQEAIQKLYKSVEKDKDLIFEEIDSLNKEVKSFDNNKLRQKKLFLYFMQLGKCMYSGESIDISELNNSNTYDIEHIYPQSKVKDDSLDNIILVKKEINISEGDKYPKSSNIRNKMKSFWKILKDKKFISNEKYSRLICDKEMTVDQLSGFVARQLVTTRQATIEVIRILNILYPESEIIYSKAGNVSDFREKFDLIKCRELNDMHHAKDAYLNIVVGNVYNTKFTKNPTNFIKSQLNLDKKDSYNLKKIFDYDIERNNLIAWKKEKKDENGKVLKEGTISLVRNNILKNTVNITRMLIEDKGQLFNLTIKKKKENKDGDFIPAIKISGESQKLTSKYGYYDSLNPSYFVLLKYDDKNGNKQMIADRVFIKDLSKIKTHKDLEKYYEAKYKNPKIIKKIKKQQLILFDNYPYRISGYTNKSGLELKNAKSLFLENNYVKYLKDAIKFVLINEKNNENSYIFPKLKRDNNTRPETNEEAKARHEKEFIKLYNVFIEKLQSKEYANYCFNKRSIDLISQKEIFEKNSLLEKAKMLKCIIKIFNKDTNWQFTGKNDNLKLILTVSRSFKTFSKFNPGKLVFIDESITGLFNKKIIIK
The settings on record: TXTL; PAM NNGMM (specific NTGCC); FIG. 3F states V2, table states V1.

Sequence “GGAAGAGCAGAGCCUUGGUCUCGCUAUACGUUCCUUACAAAAUCGGGAAACCGACUUUGCAAGGAACGUAUAGUAAAGGGAGUGCUCUGCACUCUCCUGUAAAGCACUAACCCCAUUUUCUUCGGAGAAUGGGGUUAUCUUUUU / GGAAGAGCAGAGCCTTGGTCTCNNNNNNNN / NNNNNNNNGAGACCAAGGCTCTGCTCTTCC [OMNI-46 T2 sgRNA V2 ; pbPOS T2 protospacer 8N PAM library]” showed an activity (1-depletion score) in data set [1] of 0.95.

In data set [2], “GGAAGAGCAGAGCCUUGGUCUCGUUUUAAUACCCCUACAAACUGGAAACAGUUUAAUAGGGGUAUUAAACUAAGGUUGCUAUUUUAGCAACUGACUUUAGGCAGUGGUUUCGACCACUUGCCCUUUUUU / GGAAGAGCAGAGCCTTGGTCTCNNNNNNNN / NNNNNNNNGAGACCAAGGCTCTGCTCTTCC [OMNI-43 T2 sgRNA V1 ; pbPOS T2 protospacer 8N PAM library]” gave an activity (1-depletion score) of 0.91.

For “GGAAGAGCAGAGCCUUGGUCUCGUUUUAAUACCCCUAUAAACUACUAGAAAUAGUAGUUUAAUAGGGGUAUUAAACUAAGACUACUUUAAUAGUAGUUGAUUUUAGGAGAUAGUUUUUCUAUCUCCCUUUUU / GGAAGAGCAGAGCCTTGGTCTCNNNNNNNN / NNNNNNNNGAGACCAAGGCTCTGCTCTTCC [OMNI-44 T2 sgRNA V2 ; pbPOS T2 protospacer 8N PAM library]”, in data set [3], the activity (1-depletion score) came out at 0.96.

“GGAAGAGCAGAGCCUUGGUCUCGUUUAAGAGUUAUGUAAGAAAUUACAUAACGAGUUUAAAUAAAAAUUUAUUGAAAUCGUCAAAUUAUUUUUGACUAGCCUCUUUUUGAAGAGGUUUUUUU / GGAAGAGCAGAGCCTTGGTCTCNNNNNNNN / NNNNNNNNGAGACCAAGGCTCTGCTCTTCC [OMNI-42 T2 sgRNA V2 ; pbPOS T2 protospacer 8N PAM library]” yielded an activity (1-depletion score) in data set [4] of 0.91.
